The values below come from US20230107856A1 (SHANGHAI JUNSHI BIOSCIENCES, published 2023).

For this assay, the target named is T1, PD-1 (as used in the competitive ELISA) (UniProt Q15116 25-167, limits assumed).
T1 construct: PD-1 is inferred as the target from the next sentence on PD-1 receptor occupancy
The experiment in a line: competitive ELISA; competing ligand not named.

“And” between values parts separate entries of the source, which are not always exact repeats. Equal entries are not always repeated.

B1: toripalimab (antibody, human IgG4 S228P, kappa, V domains shown)
VH: QGQLVQSGAEVKKPGASVKVSCKASGYTFTDYEMHWVRQAPIHGLEWIGVIESETGGTAYNQKFKGRVTITADKSTSTAYMELSSLRSEDTAVYYCAREGITTVATTYYWYFDVWGQGTTVTVSS
VL: DVVMTQSPLSLPVTLGQPASISCRSSQSIVHSNGNTYLEWYLQKPGQSPQLLIYKVSNRFSGVPDRFSGSGSGTDFTLKISRVEAEDVGVYYCFQGSHVPLTFGQGTKLEIKR
notes: Humanized IgG4 mAb; also called JS001; anti-PD-1 antibody toripalimab
The term IC50 denotes the concentration that gives 50% inhibition. Read a low IC50 as inhibition by little substance. Regarding B1, the IC50 was 3 nM and ~0.5 µg/mL.
